From patent US20120020948A1, “DAG-TYPE AND INDIRECT PROTEIN KINASE C ACTIVATORS AND ANTICOAGULANT FOR THE TREATMENT OF STROKE” (priority 2010, published 2012)

System: rats with focal ischemia (MCAO)
Assay: Mortality after focal ischemia (MCAO) stroke
Type: in vivo
Settings: rTPA i.v. 6 hours after the stroke, with or without bryostatin-1 2 hours later
Protocol: A transient animal model of focal ischemia was used for these experiments. The middle cerebral artery (MCA) was surgically dissected and occluded in anesthetized rats by ligature, followed by reperfusion after a defined period (about 2 hours). Animal models transient ischemia via occlusion of the MCA (MCAO) are described in, e.g., Sicard and Fisher, Exp. & Transl. Stroke Med. (2009), vol. 1, pp. 1-7.
In contrast, if rTPA was given 6 hours after the stroke, in the absence of subsequent treatment with bryostatin, 44% mortality was observed (N=6 animals).

B1: rTPA: recombinant tissue plasminogen activator, thrombolytic serine protease approved for ischemic stroke (protein, UniProt P00750 36-562, looked up)
Tissue-type plasminogen …: SYQVICRDEKTQMIYQQHQSWLRPVLRSNRVEYCWCNSGRAQCHSVPVKSCSEPRCFNGGTCQQALYFSDFVCQCPEGFAGKCCEIDTRATCYEDQGISYRGTWSTAESGAECTNWNSSALAQKPYSGRRPDAIRLGLGNHNYCRNPDRDSKPWCYVFKAGKYSSEFCSTPACSEGNSDCYFGNGSAYRGTHSLTESGASCLPWNSMILIGKVYTAQNPSAQALGLGKHNYCRNPDGDAKPWCHVLKNRRLTWEYCDVPSCSTCGLRQYSQPQFRIKGGLFADIASHPWQAAIFAKHRRSPGERFLCGGILISSCWILSAAHCFQERFPPHHLTVILGRTYRVVPGEEEQKFEVEKYIVHKEFDDDTYDNDIALLQLKSDSSRCAQESSVVRTVCLPPADLQLPDWTECELSGYGKHEALSPFYSERLKEAHVRLYPSSRCTSQHLLNRTVTDNMLCAGDTRSGGPQANLHDACQGDSGGPLVCLNDGRMTLVGIISWGLGCGQKDVPGVYTKVTNYLDWIRDNMRP
  mortality 24 hours later: 44%
